Laboratory results published in patent publication US6462178B1, “G protein” (Yong Hou Wong, priority 1999, dated 2002).
Like-named read-outs stand apart in the source and are kept apart here.

Tests used:
complement C5a receptor [1] = molecular target: complement C5a receptor
[2] = molecular target: somatostatin-1 receptor (SSTR1)
α2-adrenergic receptor [3] = details: 1 μM UK14,304; for IP Formation % Res.: relative to basal
[4] = molecular target: formyl peptide (fMLP) receptor
α2-adrenergic receptor [5] = molecular target: α2-adrenergic receptor
melatonin Mel1b receptor = molecular target: T1, melatonin Mel1b receptor
T1 sequence (P49286 whole entry, species assumed, looked up): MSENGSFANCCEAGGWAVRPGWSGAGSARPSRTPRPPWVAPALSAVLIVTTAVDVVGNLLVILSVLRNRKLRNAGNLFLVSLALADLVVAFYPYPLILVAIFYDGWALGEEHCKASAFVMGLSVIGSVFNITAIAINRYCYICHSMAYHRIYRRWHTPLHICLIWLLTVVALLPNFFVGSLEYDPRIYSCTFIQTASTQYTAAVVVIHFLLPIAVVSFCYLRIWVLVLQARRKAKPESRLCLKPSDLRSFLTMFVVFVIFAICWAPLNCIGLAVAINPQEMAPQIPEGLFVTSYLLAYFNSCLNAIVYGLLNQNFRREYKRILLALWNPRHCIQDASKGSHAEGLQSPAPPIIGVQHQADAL

complement C5a receptor [6] = molecular target: T2, complement C5a receptor (Homo sapiens, UniProt P21730); experiment: IP accumulation, complement C5a receptor coexpressed with Gα subunit in COS-7; type: cell-based; details: 100 nM C5a; for IP Formation % Res.: relative to basal
T2 construct: expressed in transfected cells; host or cells: COS-7
T2 sequence (P21730 1-350): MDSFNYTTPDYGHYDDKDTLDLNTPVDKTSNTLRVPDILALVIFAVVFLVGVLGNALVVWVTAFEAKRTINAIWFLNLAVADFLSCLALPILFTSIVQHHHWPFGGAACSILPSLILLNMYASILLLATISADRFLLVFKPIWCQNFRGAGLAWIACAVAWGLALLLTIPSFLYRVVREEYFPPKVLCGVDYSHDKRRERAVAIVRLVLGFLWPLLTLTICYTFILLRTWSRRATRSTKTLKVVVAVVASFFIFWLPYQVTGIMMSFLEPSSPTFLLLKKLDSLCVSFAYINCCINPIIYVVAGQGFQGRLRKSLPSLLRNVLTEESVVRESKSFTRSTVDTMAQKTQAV

[7] = COS-7, receptor + 16z25 chimera
[8] = COS-7, receptor + 16z44 chimera

## C5a (ligand)
Complement C5a receptor [1]
  IP formation with agonist (cells coexpressing 16z44) (IP formation (unit not given)): 87.4

## somatostatin (peptide)
[2]
  EC50 for IP formation (cells coexpressing 16z44): 0.003 µM
  EC50 for IP formation (cells coexpressing Gα16): 0.02 µM

## bombesin (peptide)
Bombesin receptor
  IP formation with agonist (control cells without 16z44) (IP formation (unit not given)): 149

## Brc1c(NC2=NCCN2)ccc2nccnc12 [UK14,304]
α2-adrenergic receptor [3]; [7]
  IP Formation Agonist: 116.1 ± 8.8
  IP Formation % Res.: 365%
α2-adrenergic receptor [3]; [8]
  IP Formation Agonist: 126.7 ± 1.5
  IP Formation % Res.: 297%
α2-adrenergic receptor [3]; COS-7, receptor + Gα16
  IP Formation Agonist: 107.4 ± 9.6
  IP Formation % Res.: 730%

B1: Gα16 (protein)
chain: MARSLTWRCCPWCLTEDEKAAARVDQEINRILLEQKKQDRGELKLLLLGPGESGKSTFIKQMRIIHGAGYSEEERKGFRPLVYQNIFVSMRAMIEAMERLQIPFSRPESKHHASLVMSQDPYKVTTFEKRYAAAMQWLWRDAGIRACYERRREFHLLDSAVYYLSHLERITEEGYVPTAQDVLRSRMPTTGINEYCFSVQKTNLRIVDVGGQKSERKKWIHCFENVIALIYLASLSEYDQCLEENNQENRMKESLALFGTILELPWFKSTSVILFLNKTDILEEKIPTSHLATYFPSFQGPKQDAEAAKRFILDMYTRMYTGCVDGPEGSKKGARSRRLFSHYTCATDTQNIRKVFKDVRDSVLARYLDEINLL
Melatonin Mel1c receptor
  IP formation (PLC stimulation), % Res.: 115 % Res.
µ-opioid receptor
  IP formation (PLC stimulation), % Res.: 134 % Res.
κ-opioid receptor
  IP formation (PLC stimulation), % Res.: 327 % Res.
δ-opioid receptor
  IP formation (PLC stimulation), % Res.: 417 % Res.
[4]
  IP formation (PLC stimulation), % Res.: 566 % Res.
Vasopressin V2 receptor
  IP formation (PLC stimulation), % Res.: 332 % Res.
Complement C5a receptor [1]
  IP formation (PLC stimulation), % Res.: 608 % Res.
Melatonin Mel1a receptor
  IP formation (PLC stimulation), % Res.: 296 % Res.
α2-adrenergic receptor [5]
  IP formation (PLC stimulation), % Res.: 730 % Res.
Melatonin Mel1b receptor
  IP formation (PLC stimulation), % Res.: 195 % Res.

B2: C5a: complement C5a, agonist of the C5a receptor (protein, UniProt P01031 678-751, looked up)
C5a anaphylatoxin: TLQKKIEEIAAKYKHSVVKKCCYDGACVNNDETCEQRAARISLGPRCIKAFTECCVVASQLRANISHKDMQLGR
modifications: C5a anaphylatoxin
notes: complement C5a, agonist of the C5a receptor
Complement C5a receptor [6]; [7]
  IP Formation Agonist: 79.6 ± 6.5
  IP Formation % Res.: 432%
Complement C5a receptor [6]; [8]
  IP Formation Agonist: 87.4 ± 7.2
  IP Formation % Res.: 457%
Complement C5a receptor [6]; COS-7, receptor + Gα16
  IP Formation Agonist: 67.5 ± 8.1
  IP Formation % Res.: 608%

B3: 16z25 chimera (protein)
chain: MARSLTWRCCPWCLTEDEKAAARVDQEINRILLEQKKQDRGELKLLLLGPGESGKSTFIKQMRIIHGAGYSEEERKGFRPLVYQNIFVSMRAMIEAMERLQIPFSRPESKHHASLVMSQDPYKVTTFEKRYAAAMQWLWRDAGIRACYERRREFHLLDSAVYYLSHLERITEEGYVPTAQDVLRSRMPTTGINEYCFSVQKTNLRIVDVGGQKSERKKWIHCFENVIALIYLASLSEYDQCLEENNQENRMKESLALFGTILELPWFKSTSVILFLNKTDILEEKIPTSHLATYFPSFQGPKQDAEAAKRFILDMYTRMYTGCVDGPEGSKKGARSRRLFSHYTCATDTSNIQFVFDAVTDVIIQNNLKYIGLC
Melatonin Mel1c receptor
  IP formation (PLC stimulation), % Res.: 270 % Res.
µ-opioid receptor
  IP formation (PLC stimulation), % Res.: 224 % Res.
Dopamine D1 receptor
  IP formation (PLC stimulation), % Res.: 214 % Res.
κ-opioid receptor
  IP formation (PLC stimulation), % Res.: 188 % Res.
Adenosine A1 receptor
  IP formation (PLC stimulation), % Res.: 197 % Res.
δ-opioid receptor
  IP formation (PLC stimulation), % Res.: 287 % Res.
[4]
  IP formation (PLC stimulation), % Res.: 352 % Res.
Vasopressin V2 receptor
  IP formation (PLC stimulation), % Res.: 291 % Res.
Complement C5a receptor [1]
  IP formation (PLC stimulation), % Res.: 432 % Res.
Melatonin Mel1a receptor
  IP formation (PLC stimulation), % Res.: 150 % Res.
Dopamine D2 receptor
  IP formation (PLC stimulation), % Res.: 324 % Res.
α2-adrenergic receptor [5]
  IP formation (PLC stimulation), % Res.: 365 % Res.
β2-adrenergic receptor
  IP formation (PLC stimulation), % Res.: 360 % Res.
Melatonin Mel1b receptor
  IP formation (PLC stimulation), % Res.: 155 % Res.
